Several values for one entry are separate records, joined by “and”; a condition that tells them apart may be missing. Equal entries are not always repeated.
Experiments:
[1] = biological target: T1, full length human PD-L1 (amino acids 1 to 290 of NP_054862.1) on transfected cells (human, UniProt Q9NZQ7 19-290); test: cell-based or functional assay
[2] = biological target: T2, recombinant human PD-L1 (amino acids 19-239 of NP_054862.1) expressed with a C-terminal mouse IgG2a Fc tag (human); test: competition ELISA: 0.5 nM hPD-L1-mFc binding to coated hPD-1-hFc
T2 construct: called dimeric; also called hPD-L1-mFc
Method: (§1) The ability of monoclonal anti-PD-L1 antibodies to block human PD-L1 from binding to its binding partners, the human PD-1 and the human B7-1 receptors, was measured using two competition sandwich ELISA formats.
(§2) A dimeric human PD-1 protein comprised of a portion of the extracellular domain (amino acids 25-170 of accession number NP_005009.2 with a C93S change) that was expressed with a C-terminal hFc tag (hPD-1-hFc; SEQ ID: 350) and a dimeric human B7-1 protein comprised of a portion of the extracellular domain expressed with C-terminal hFc tag and hexahistidine tags (hB7-1-hFc-6His; R&D Systems, #140-B1) were separately coated at 2 μg/mL on a 96-well microtiter plate in a PBS buffer overnight at 4° C. […] These antibody-protein complexes were then incubated for 1 hour at room temperature (RT). […] The complexes were allowed to bind to the coated plates for 1 hour at RT. […] Samples were developed with a TMB solution (BD Biosciences, #51-2606KC and #51-2607KC) to produce a colorimetric reaction and neutralized with 1M sulfuric acid before measuring absorbance at 450 nm on a Victor X5 plate reader. Data analysis used a sigmoidal dose-response model within Prism™ software.

[3] = biological target: T1, full length human PD-L1 (amino acids 1 …); test: FACS, 100 nM antibody, HEK293/hPD-L1 cells
Method: (§3) The binding of anti-PD-L1 antibodies to a human embryonic kidney cell line (HEK293; ATCC, #CRL-1573) stably transfected with full length human PD-L1 (amino acids 1 to 290 of accession number NP_054862.1) (HEK293/hPD-L1) was determined by FACS.
(§4) For the assay, adherent cells were detached using enzyme-free dissociation buffer and blocked with complete medium. Cells were centrifuged and resuspended at a concentration of 2.8×10\hat{ }6 cells/mL in cold PBS containing 2% FBS. […] Cells were washed with D-PBS containing 2% FBS to remove unbound secondary detection reagents and fluorescence measurements were acquired using a HyperCyte (IntelliCyt, Inc.) flow cytometer. Data was analyzed using HyperCyte software.

[4] = biological target: T2, recombinant human PD-L1 (amino acids …); test: BLI (Octet Red96): 100 nM hPD-L1-mFc + 500 nM mAb on captured hPD-1-hFc, 25C
Method: Inhibition studies for anti-PD-L1 monoclonal antibodies expressed with mouse Fc were performed on an Octet Red96 instrument. […] Approximately 0.8 nm to 1.2 nm of recombinant human PD-1 expressed with a C-terminal human IgG1 Fc tag (hPD-1-hFc; SEQ ID: 350) was captured using anti-human IgG Fc capture biosensors. […] The entire experiment was performed at 25° C. in Octet HBST buffer (0.01 M HEPES pH7.4, 0.15M NaCl, 3 mM EDTA, 0.05% v/v Surfactant P20, 0.1 mg/mL BSA) with a plate shaking at a speed of 1000 rpm. The biosensors were washed in Octet HBST buffer in between each step of the experiment. The real-time binding response was monitored during the course of the experiment and the binding response at the end of every step was recorded.

[5] = biological target: T1, full length human PD-L1 (amino acids 1 …); test: FACS, 100 nM antibody
Method: as §3, §4

[6] = biological target: T2, recombinant human PD-L1 (amino acids …); test: competition ELISA: 8 nM hPD-L1-mFc binding to coated hB7-1-hFc-6His
Method: as §1, §2

[7] = biological target: T3, recombinant cynomolgus monkey PD-L1 expressed with a C-terminal mouse IgG2a Fc tag (cynomolgus monkey); test: SPR (Biacore), mAb captured, 37C
T3 construct: also called MfPD-L1-mFc; monkey PD-L1-mFc

[8] = biological target: T4, recombinant human PD-L1 (amino acids 19-239 of NP_054862.1) expressed with a C-terminal human IgG1 Fc tag (human); test: SPR (Biacore 3000): 100 nM hPD-L1-hFc + 500 nM mAb on captured hPD-1-mFc, 25C
T4 construct: also called hPD-L1-hFc
Method: Next, inhibition studies for anti-PD-L1 monoclonal antibodies expressed with human Fc were performed on Biacore 3000 instrument. […] The entire experiment was performed at 25° C. in HBST running buffer (0.01 M HEPES pH7.4, 0.15M NaCl, 3 mM EDTA, 0.05% v/v Surfactant P20). The real-time binding responses were monitored during the entire course of the experiment and the binding response at the end of every step was recorded.

T3 sequence (chain, as listed by the source limits assumed): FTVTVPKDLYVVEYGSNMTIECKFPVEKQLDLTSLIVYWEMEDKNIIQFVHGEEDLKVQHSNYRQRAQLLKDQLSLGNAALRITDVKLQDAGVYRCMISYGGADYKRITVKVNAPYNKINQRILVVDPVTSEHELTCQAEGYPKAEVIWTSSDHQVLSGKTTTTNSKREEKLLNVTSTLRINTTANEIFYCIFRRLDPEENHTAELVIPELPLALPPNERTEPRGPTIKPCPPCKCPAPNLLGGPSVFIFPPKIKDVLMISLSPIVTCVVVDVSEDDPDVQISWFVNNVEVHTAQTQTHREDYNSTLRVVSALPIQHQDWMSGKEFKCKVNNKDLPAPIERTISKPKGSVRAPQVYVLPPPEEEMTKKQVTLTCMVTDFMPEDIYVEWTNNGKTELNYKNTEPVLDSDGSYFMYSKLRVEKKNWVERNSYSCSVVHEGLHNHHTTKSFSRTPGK
T1 sequence (Q9NZQ7 19-290 limits assumed): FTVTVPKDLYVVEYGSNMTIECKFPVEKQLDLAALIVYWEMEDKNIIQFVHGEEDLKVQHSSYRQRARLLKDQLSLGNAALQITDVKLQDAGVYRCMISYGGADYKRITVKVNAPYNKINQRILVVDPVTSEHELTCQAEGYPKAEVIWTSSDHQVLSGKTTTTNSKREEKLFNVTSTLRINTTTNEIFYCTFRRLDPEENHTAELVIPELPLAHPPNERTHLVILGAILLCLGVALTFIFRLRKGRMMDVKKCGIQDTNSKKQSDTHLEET
T2 sequence (chain, as listed by the source limits assumed): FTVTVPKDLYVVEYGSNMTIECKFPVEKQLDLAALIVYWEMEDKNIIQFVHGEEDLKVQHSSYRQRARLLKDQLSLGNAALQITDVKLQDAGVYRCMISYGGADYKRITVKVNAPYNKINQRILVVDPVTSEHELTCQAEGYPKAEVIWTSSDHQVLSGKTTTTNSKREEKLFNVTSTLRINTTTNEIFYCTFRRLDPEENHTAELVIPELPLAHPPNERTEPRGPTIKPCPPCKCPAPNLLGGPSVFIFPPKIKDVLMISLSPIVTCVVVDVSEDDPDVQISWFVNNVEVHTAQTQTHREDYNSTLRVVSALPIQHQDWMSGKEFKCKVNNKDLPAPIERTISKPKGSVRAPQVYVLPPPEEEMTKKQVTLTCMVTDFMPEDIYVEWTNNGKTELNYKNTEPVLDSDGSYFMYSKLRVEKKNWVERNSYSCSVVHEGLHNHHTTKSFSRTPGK
T4 sequence (chain, as listed by the source limits assumed): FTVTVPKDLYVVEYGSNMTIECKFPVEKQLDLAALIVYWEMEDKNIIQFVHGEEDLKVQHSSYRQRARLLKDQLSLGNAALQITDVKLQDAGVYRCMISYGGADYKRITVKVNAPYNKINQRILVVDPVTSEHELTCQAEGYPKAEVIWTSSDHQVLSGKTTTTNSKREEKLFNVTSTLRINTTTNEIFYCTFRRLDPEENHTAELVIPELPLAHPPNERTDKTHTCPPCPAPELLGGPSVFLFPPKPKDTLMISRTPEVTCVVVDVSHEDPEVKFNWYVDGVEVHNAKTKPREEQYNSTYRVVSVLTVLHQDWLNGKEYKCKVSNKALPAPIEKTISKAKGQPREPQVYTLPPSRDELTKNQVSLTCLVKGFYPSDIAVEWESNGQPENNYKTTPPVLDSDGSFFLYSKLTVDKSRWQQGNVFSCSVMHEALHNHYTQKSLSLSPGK

Binder | Concentration [M] of Antibody at 125% activation [1] [M] | Emax mean [%] @ 100 nM [1] [%] | % maximum blocking [2] [%] | IC50 [2] [nM] | MFI [3] [MFI] | % Blocking [4] [%] | Ratio of HEK293/hPD-L1 to HEK293 parental cells [5] | % maximum blocking [6] [%] | IC50 [6] [nM] | Kd [7] | koff [7] | kon [7] | t1/2 [7] | % Blocking [8] [%]
H2aM8309N (antibody, V domains shown, human variable regions, mouse IgG2 Fc (H2aM prefix); also called H2M8309N) VH: not shown VL: DIQMTQSPSSLSASVGDRVTITCRTSQGIRNDLGWYQQKPGKAPKRLIYAASSLQSGVPSRFSGSGSGTEFTLTISSLQPEDFATYYCLQHNNYPYTFGQGTKLEIK | 3.09e-10 | 181 | 98 | < 0.25 | 193000 | 94 | 166 | 98 | < 4 | – | – | – | – | –
H2aM8310N (antibody, V domains shown, human variable regions, mouse IgG2 Fc (H2aM prefix); also called H2M8310N) VH: QVQLVQSGAEVKKPGASVQVSCKASGYSFTGYYIHWVRQAPGQGLEWMGWINPNSGTKKYAHKFQGRVTMTRDTSIDTAYMILSSLISDDTAVYYCARDEDWNFGSWFDSWGQGTLVTVSS VL: DIVMTQTPLSSPVTLGQPASISCRSSQTLVHGDGNTYLSWIQQRPGQPPRLLIYKVSNQFSGVPDRFSGSGAGTDFTLKISRVEAEDVGLYFCMQATHFPITFGQGTRLEIK | – | 113 | 76 | 0.39 | 14900 | 58 | 11 | 98 | < 4 | – | – | – | – | –
H2aM8312N (antibody, V domains shown, human variable regions, mouse IgG2 Fc (H2aM prefix); also called H2M8312N) VH: QVHLVQSGAEVKKPGASVKVSCKASGYTFTGYYIHWVRQAPGHGLEWMGWLNPNTGTTKYIQNFQGRVTMTRDTSSSTAYMELTRLRSDDTAVYYCARDEDWNYGSWFDTWGQGTLVTVSS VL: not shown | – | 75.6 | 23 | – | 158000 | -68 | 115 | 98 | < 4 | – | – | – | – | –
H2aM8314N (antibody, V domains shown, human variable regions, mouse IgG2 Fc (H2aM prefix); also called H2M8314N) VH: EVQLVESGGGVVRPGGSLRLSCAASGFTFDDYGMTWVRQAPGRGLEWVSGIHWHGKRTGYADSVKGRFTISRDNAKKSLYLQMNSLKGEDTALYHCVRGGMSTGDWFDPWGQGTLVIVSS VL: DIQMTQSPSSLSASLGDRVTITCRASQSINSYLNWYQQKPGKAPKLLIYVASSLQSGVPSRFSGSGSGTEFTLTISNLQPEDFATYYCQQSYSTPPITFGQGTRLEIK | 1.44e-11 | 235 | 93 | < 0.25 | 195000 | 94 | 95 | 97 | < 4 | – | – | – | – | –
H2aM8317N (antibody, V domains shown, human variable regions, mouse IgG2 Fc (H2aM prefix); also called H2M8317N) VH: EVQLVESGGGLVQPGGSLRLSCAASGFTVGSNYMNWVRQAPGKGLEWVSVIYSGGSTYYADSVKGRFTISRLTSKNTLYLQMSSLRPEDTAVYYCARGIRGLDVWGQGTTVTVSS VL: DIQMTQSPSSLSASVGDRVTITCRASQTINIYLNWYQQKPGRAPRLLIYAASSLQSGVPSRFSGSGSGTDFTLTISSLQPEDFATYYCHQSYSTPPITFGQGTRLEIK | – | 109 | -11 | – | 67600 | -87 | 53 | -166 | – | – | – | – | – | –
H2aM8321N (antibody, V domains shown, human variable regions, mouse IgG2 Fc (H2aM prefix); also called H2M8321N) VH: EERLVESGGDLVQPGGSLRLSCAASGITVGTNYMNWVRQAPGKGLEWVSVISSGGNTHYADSVKGRFIMSRQTSKNTLYLQMNSLETEDTAVYYCARGIRGLDVWGQGTMVTVSS VL: DIQMTQSPSSLSASVGDRVTITCRASQSMSSYLNWYQQKPGRAPKLLIFAASSLQSGVPSRFSGSGSGTDFTLTISSLQPEDFATYYCQQSYSTPPITFGQGTRLEIK | – | 117 | 10 | – | 112000 | -94 | 85 | -124 | – | – | – | – | – | –
H2aM8323N (antibody, V domains shown, human variable regions, mouse IgG2 Fc (H2aM prefix); also called H2M8323N) VH: QVQLVQSGAEVKMPGSSVRVSCKASGGIFSSSTISWVRQAPGQGLEWMGEIIPVFGTVNYAQKFQDRVIFTADESTTTAYMELSSLKSGDTAVYFCARNWGLGSFYIWGQGTMVTVSS VL: EIVLTQSPGTLSLSPGERATLSCRASQSFNFNYLAWYQQKPGQAPRLLIYGASSRATGIPDRFSGSGSGTDFTLTINRLEPEDFGVFYCQQYESAPWTFGQGTKVEIK | 2.2e-10 | 173 | 100 | < 0.25 | 163000 | 94 | 73 | 99 | < 4 | – | – | – | – | –
H1H9329P (antibody, V domains shown, human IgG1 Fc (H1H prefix)) VH: EVQLVESGGGLVQSGGSLRLSCAASGFTFSSYWMSWVRQAPGKGLEWVANIKQDGSEKYYVDSVKGRFTISRDNAKNSLYLQMNSLRADDTAVYYCARDDIVVVPAPMGYYYYYFGMDVWGQGTTVTVSS VL: DIQMTQSPSSLSASVGDRVTITCRASQGIRNDLGWYQQKPGKAPKRLIYAASSLQSGVPSRFSGSGSGTEFTLTISSLQPEDFATYYCLQHNSYPYTFGQGTKLEIK | – | 124 | 100 | < 0.25 | 282000 | – | 188 | 100 | 4.9 | 0.708 nM | 0.00154 s⁻¹ | 2.18e+06 M⁻¹ s⁻¹ | 8 min | 97
H2aM8306N (antibody, V domains shown, human variable regions, mouse IgG2 Fc (H2aM prefix); also called H2M8306N) VH: EVQLVESGGGLVQPGGSLRLSCAASGFTFSRFWMSWVRQAPGKGLEWVANINQDGTEKYYVDSVKGRFTISRDNAKNSLYLQMNSLRAGDTAVYYCANTYYDFWSGHFDYWGQGTLVTVSS VL: not shown | 3.78e-09 | 167 | 99 | < 0.25 | 316000 | 94 | 246 | 93 | < 4 | – | – | – | – | –
H1H9364P2 (antibody, V domains shown, human IgG1 Fc (H1H prefix)) VH: EVQLVESGGGLVQPGRSLRLSCAASGFTFDDYALHWVRQAPGKGLEWVSGISWTGGTIDYADSVKGRFTISRDNAKNSLYLQMSSLRTEDTAIYYCTRDIRGNWKYGGWFDPWGQGTLVTVSS VL: not shown | – | – | 100 | < 0.25 | 324000 | – | 157 | 101 | 4.1 | 0.0471 nM and 0.028 nM | 0.000111 s⁻¹ and 6.76e-05 s⁻¹ | 2.36e+06 M⁻¹ s⁻¹ and 2.41e+06 M⁻¹ s⁻¹ | 104 min and 171 min | 86

— patent US20210380702A1 (Regeneron, published 2021)
